US10590168B2, “Substrates for FLT3 kinase and uses thereof” (REGENTS OF THE UNIVERSITY OF MINNESOTA, priority 2016, dated 2020)

Molecular target: T1, FLT3 (Homo sapiens, UniProt P36888)
T1 sequence (P36888 27-993): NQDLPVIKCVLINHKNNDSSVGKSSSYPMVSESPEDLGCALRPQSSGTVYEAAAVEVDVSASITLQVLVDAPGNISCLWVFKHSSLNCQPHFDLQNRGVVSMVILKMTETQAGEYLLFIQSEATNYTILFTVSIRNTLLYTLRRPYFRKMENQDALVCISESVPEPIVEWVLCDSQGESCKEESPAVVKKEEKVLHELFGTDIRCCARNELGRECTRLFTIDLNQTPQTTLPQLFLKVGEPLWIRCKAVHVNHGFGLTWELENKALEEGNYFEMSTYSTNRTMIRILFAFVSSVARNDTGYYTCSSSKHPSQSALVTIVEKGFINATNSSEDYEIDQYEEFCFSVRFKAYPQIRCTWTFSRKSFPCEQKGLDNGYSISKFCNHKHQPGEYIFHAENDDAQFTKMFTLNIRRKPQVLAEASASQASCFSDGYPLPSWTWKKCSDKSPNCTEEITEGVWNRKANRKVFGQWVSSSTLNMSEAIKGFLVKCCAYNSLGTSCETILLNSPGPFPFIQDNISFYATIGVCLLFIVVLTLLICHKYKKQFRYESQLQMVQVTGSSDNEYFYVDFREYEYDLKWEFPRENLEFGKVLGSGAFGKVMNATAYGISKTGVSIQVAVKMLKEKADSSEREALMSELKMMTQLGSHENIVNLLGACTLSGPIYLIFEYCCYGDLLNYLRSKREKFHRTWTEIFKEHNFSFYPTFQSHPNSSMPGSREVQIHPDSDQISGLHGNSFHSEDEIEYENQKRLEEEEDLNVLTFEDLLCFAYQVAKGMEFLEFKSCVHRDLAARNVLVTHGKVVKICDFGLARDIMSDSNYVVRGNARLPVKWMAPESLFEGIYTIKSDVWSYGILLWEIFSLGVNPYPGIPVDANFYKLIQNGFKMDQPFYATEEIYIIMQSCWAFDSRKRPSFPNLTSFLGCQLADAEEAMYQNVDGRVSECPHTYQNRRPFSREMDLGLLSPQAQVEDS
Test: Phosphorylation of existing peptide substrate by FLT3
Assay type: biochemical
Details: in the applicant's experience

“FTDRLQQYISTR [Flt3tide, previously reported Flt3 substrate peptide (Böhmer & Uecker 2009)]” was tested, and the “phosphorylation by FLT3” value was “poorly phosphorylated”.
